Reference: article PMC12024540, “Peptide-Based Regulation of TNF-α-Mediated Cytotoxicity” (Biomolecules, 2025)
Like-named read-outs stand apart in the source and are kept apart here.

Assays:
[1] = molecular target: recombinant human tumor necrosis factor alpha (rhTNF-α) (human); test: MST; labelled rhTNF-α (RED-NHS 2nd Generation) at 20 nM, peptide titrated in 16 serial dilutions, PBS, 20 min incubation in the dark, Monolith NT.115 Pico, medium MST power
[2] = molecular target: recombinant human tumor necrosis factor alpha (rhTNF-α) (human)
[3] = molecular target: recombinant human tumor necrosis factor alpha (rhTNF-α) (human); remark: listed apart in the source

Sequence of recombinant human tumor necrosis factor alpha (rhTNF-α) (human) (P01375 77-233): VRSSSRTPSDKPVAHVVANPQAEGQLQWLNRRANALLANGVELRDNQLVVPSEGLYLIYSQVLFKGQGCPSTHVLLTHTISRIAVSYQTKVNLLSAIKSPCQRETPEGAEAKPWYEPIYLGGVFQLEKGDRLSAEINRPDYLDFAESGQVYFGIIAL

Row | Binder | Kd [1] | neutralization of TNF-α-induced cytotoxicity on L929 cells (MTT, 1 ng/mL TNF-α with actinomycin D, peptide 1 pM to 10 μM); blocks TNF-α with TNFR1 [2] | neutralization of TNF-α-induced cytotoxicity on L929 cells (MTT, 1 ng/mL TNF-α with actinomycin D, peptide 1 pM to 10 μM); blocks TNF-α with TNFR1 [3]
1 | KGGGSGGGSGGGSRKEMGQV [OB2 peptide] | 46.7 nM | 81 pM | 
2 | KGGGSGGGSHIHDDLLRYYGW [OB1 peptide] | 300 nM | 4.6 nM | 
3 | KRWSRYFWVDMTGTR [OB8 peptide] | 3890 nM |  | 7.5 µM
